Test results from IntAct's records for PubMed 22660580.

B1: Interleukin-1 receptor-like 1 (Mus musculus), P14719 (parent)
chain: MIDRQRMGLWALAILTLPMYLTVTEGSKSSWGLENEALIVRCPQRGRSTYPVEWYYSDTNESIPTQKRNRIFVSRDRLKFLPARVEDSGIYACVIRSPNLNKTGYLNVTIHKKPPSCNIPDYLMYSTVRGSDKNFKITCPTIDLYNWTAPVQWFKNCKALQEPRFRAHRSYLFIDNVTHDDEGDYTCQFTHAENGTNYIVTATRSFTVEEKGFSMFPVITNPPYNHTMEVEIGKPASIACSACFGKGSHFLADVLWQINKTVVGNFGEARIQEEEGRNESSSNDMDCLTSVLRITGVTEKDLSLEYDCLALNLHGMIRHTIRLRRKQPIDHRSIYYIVAGCSLLLMFINVLVIVLKVFWIEVALFWRDIVTPYKTRNDGKLYDAYIIYPRVFRGSAAGTHSVEYFVHHTLPDVLENKCGYKLCIYGRDLLPGQDAATVVESSIQNSRRQVFVLAPHMMHSKEFAYEQEIALHSALIQNNSKVILIEMEPLGEASRLQVGDLQDSLQHLVKIQGTIKWREDHVADKQSLSSKFWKHVRYQMPVPERASKTASVAAPLSGKACLDLKHF
partner: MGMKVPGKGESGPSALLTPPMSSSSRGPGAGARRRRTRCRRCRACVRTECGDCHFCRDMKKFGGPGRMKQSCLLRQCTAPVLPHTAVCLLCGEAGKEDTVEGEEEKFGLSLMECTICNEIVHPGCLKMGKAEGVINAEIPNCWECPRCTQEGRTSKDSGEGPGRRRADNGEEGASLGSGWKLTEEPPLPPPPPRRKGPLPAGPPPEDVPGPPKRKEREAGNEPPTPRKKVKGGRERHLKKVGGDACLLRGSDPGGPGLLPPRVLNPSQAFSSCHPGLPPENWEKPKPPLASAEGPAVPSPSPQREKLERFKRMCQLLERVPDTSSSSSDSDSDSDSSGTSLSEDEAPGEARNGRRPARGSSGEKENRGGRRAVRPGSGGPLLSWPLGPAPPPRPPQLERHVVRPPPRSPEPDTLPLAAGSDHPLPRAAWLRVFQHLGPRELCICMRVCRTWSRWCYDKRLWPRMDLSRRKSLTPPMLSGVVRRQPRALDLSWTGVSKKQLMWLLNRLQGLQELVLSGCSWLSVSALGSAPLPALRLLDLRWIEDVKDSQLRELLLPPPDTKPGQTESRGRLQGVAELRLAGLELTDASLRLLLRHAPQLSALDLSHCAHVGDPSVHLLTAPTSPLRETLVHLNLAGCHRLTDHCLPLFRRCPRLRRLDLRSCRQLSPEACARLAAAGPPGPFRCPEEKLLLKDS

Variants of: B1
Settings: with fxl19_human FBXL19, Q6PCT2

Variant	effect of a mutation on the interaction
S442A	decreasing interaction
